This note sets out measurements from article PMC4937518.

In the test the target is GAPDH (human (endogenous in U2OS)) (UniProt P04406). The test is described as follows: cross-linking; titration of formaldehyde on intact adherent U2OS cells, quenched with Tris, extracted in SDS denaturing buffer, immunoblot of total cell lysates; 6% formaldehyde optimal. (A western blot detects proteins with antibodies after separation by electrophoresis.)

GAPDH, P04406 1-335 (enzyme; other documents disagree on this pair), sequence (P04406 whole entry): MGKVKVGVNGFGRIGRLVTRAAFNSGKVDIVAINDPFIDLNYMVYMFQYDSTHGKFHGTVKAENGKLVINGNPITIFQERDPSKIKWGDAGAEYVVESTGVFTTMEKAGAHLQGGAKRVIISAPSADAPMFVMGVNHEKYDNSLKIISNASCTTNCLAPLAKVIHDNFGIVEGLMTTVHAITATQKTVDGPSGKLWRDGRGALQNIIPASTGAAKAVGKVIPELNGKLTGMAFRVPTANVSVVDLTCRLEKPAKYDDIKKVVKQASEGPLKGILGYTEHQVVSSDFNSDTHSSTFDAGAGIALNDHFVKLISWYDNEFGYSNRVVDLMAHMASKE

With “GAPDH, P04406 1-335 (enzyme; other documents disagree on this pair)”, the stoichiometry N – broadly, a count of units in the complex or per binding partner – was 4.
